According to publication PMC4039143, “Polyubiquitylation of AMF requires cooperation between the gp78 and TRIM25 ubiquitin ligases” (Oncotarget, 2013):

Target: T1, His-tagged AMF expressed in and purified from E. coli (human, UniProt P06744 1-558)
T1 construct: autocrine motility factor (AMF) / phosphoglucose isomerase (PGI); the E. coli expression construct is not described; also called his-AMF; PGI; source: E. coli (BL21), purified (Ni-NTA agarose, PD-10 desalting); not shown: His, N-terminal, kept
Test: pull-down; GST fusions held on glutathione-agarose and washed; incubated with purified his-AMF or TRIM25 in buffer D (50 mM Tris/HCl pH 7.5, 100 mM NaCl, 1 mM DTT, 0.1% Tween20), 3 hr at 4 °C; retained protein detected by immunoblot
Conditions: both partners purified

binding result: binds
B1: GST fusion bearing the entire C-terminal (cytoplasmic) domain of gp78 (domain or fragment, human, UniProt Q9UKV5 309-643, looked up)
chain: IRRHKNYLRVVGNMEARFAVATPEELAVNNDDCAICWDSMQAARKLPCGHLFHNSCLRSWLEQDTSCPTCRMSLNIADNNRVREEHQGENLDENLVPVAAAEGRPRLNQHNHFFHFDGSRIASWLPSFSVEVMHTTNILGITQASNSQLNAMAHQIQEMFPQVPYHLVLQDLQLTRSVEITTDNILEGRIQVPFPTQRSDSIRPALNSPVERPSSDQEEGETSAQTERVPLDLSPRLEETLDFGEVEVEPSEVEDFEARGSRFSKSADERQRMLVQRKDELLQQARKRFLNKSSEDDAASESFLPSEGASSDPVTLRRRMLAAAAERRLQKQQTS
notes: Expression vector provided by A Weissman; also called GST-gp78C; gp78C; source: E. coli (BL21), lysate applied to glutathione-agarose and washed; also purified on glutathione-agarose
